Test results reported in patent publication US20260242478A1 (published 2026).
Where no end group is shown, it is not given here.

Key:
[1] = molecular target: T1, anti-CD28 scFv (VH - linker 1 - VL) (biotinylated (site not stated)); assay: phage ELISA; biotinylated anti-CD28 scFv on neutravidin plate, clonal phage supernatant, anti-M13-HRP detection;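 also: before phage addition, wells were pretreated with soluble CD28 protein in blocking buffer, or with blocking buffer only as the comparison, then phage were added without washing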
T1 sequence (scFv, as listed by the source): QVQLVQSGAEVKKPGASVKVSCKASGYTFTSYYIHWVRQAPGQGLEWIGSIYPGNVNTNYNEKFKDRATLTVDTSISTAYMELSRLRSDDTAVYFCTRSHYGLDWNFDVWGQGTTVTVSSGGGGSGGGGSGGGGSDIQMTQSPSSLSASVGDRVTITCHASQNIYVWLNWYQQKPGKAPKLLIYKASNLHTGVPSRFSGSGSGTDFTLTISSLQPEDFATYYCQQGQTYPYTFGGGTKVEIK

[2] = molecular target: T1, anti-CD28 scFv (VH - linker 1 - VL); assay: phage ELISA as above, wells pre-incubated with soluble CD28 (competitor);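 also: ELISA of crude clonal phage supernatants added to wells pre-treated with soluble CD28 in blocking buffer, bound phage read out with HRP-conjugated anti-M13 antibody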
Procedure: (§1) Clonal phage were harvested as crude supernatants and screened via standard enzyme linked immunosorbent assays (ELISAs). […] Prior to the addition of clonal phage, wells were incubated with blocking buffer and CD28 soluble protein or blocking buffer alone. Without washing or aspirating, clonal phage supernatants were then added to the wells and incubated for a short time. Wells were then washed followed by detection of bound phage using a horse radish peroxidase conjugated anti-M13 antibody.

[3] = molecular target: T2, Anti-CD28 scFv (VH - linker 1 - VL) (biotinylated (site not stated)); assay: clonal phage ELISA on biotinylated anti-CD28 scFv captured on neutravidin plates, anti-M13 HRP detection;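 also: crude phage supernatants were used, and before phage were added the wells were pretreated with blocking buffer, either alone or with soluble CD28 protein, without washing in between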
T2 sequence (scFv, as listed by the source): as above

[4] = molecular target: T2, Anti-CD28 scFv (VH - linker 1 - VL); assay: clonal phage ELISA on captured anti-CD28 scFv, wells pre-incubated with soluble CD28 as competitor;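 also: crude phage supernatants used, bound phage read out via HRP-linked anti-M13 antibody, with comparison wells given blocking buffer lacking soluble CD28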
Procedure: as §1

Binder | CD28 scFv signal [1] | CD28 scFv signal in presence of CD28 [2] | CD28 scFv signal [3] | CD28 scFv signal in presence of CD28 [4]
MDWCPRHLWDLCFA (peptide, not shown: large carriers, cysteine pairing not given here; also: displayed as fusion to phage pIII, linker and pIII sequence not given here, Clonal phage of the Peptide-9 library) [Phage-166] | 0.925 | 0.096 |  | 
MDWCPRHLWSECFY (peptide, not shown: large carriers, cysteine pairing not given here; also: fused to phage pIII protein, pIII and linker sequence not given here, Clonal phage of the Peptide-9 library) [Phage-146] | 1.92 | 0.199 |  | 
MDWCPMDLWDVCFN (tested as crude clonal phage supernatant) [Phage-140] |  |  | 2.15 | 0.263
MDWCPRHLWNVCFS (peptide, not shown: large carriers, Clonal phage of the Peptide-9 library) [Phage-150] | 1.61 | 0.176 |  | 
MDWCPRDLWDVCFA (tested as crude clonal phage supernatant) [Phage-139] |  |  | 2.16 | 0.28
MHWCPRDLWVVCFN (peptide, not shown: large carriers, cysteine pairing not given here; also: fused to phage pIII protein, pIII and linker sequence not given here, Clonal phage of the Peptide-9 library) [Phage-147] | 1.83 | 0.112 |  | 
MHWCPEYLWNECFA (peptide, not shown: large carriers, cysteine pairing not given here; also: displayed as fusion to phage pIII, linker and pIII sequence not given here, Clonal phage of the Peptide-9 library) [Phage-148] | 1.69 | 0.092 |  | 
MDWCPRDLWNVCFA (peptide, not shown: large carriers, Clonal phage of the Peptide-9 library) [Phage-154] | 1.38 | 0.145 |  | 
MDWCPRDLWAVCFA (peptide, not shown: large carriers, Clonal phage of the Peptide-9 library) [Phage-149] | 1.67 | 0.089 |  | 
MDWCPRDLWNVCFN (peptide, not shown: large carriers, cysteine pairing not given here; also: displayed as fusion to phage pIII, linker and pIII sequence not given here, Clonal phage of the Peptide-9 library) [Phage-169] | 0.74 | 0.108 |  | 
MDWCPVILWDFCFN (tested as crude clonal phage supernatant; also called position 11 is F in the position column) [Phage-142] |  |  | 2.03 | 0.173
MDWCPKYLWDKCFH (peptide, not shown: large carriers, Clonal phage of the Peptide-9 library) [Phage-152] | 1.54 | 0.109 |  | 
LDWCPLNLWDLCYF (tested as crude clonal phage supernatant) [Phage-143] |  |  | 2.03 | 0.095
MDWCPKHLWIECFA (peptide, not shown: large carriers, cysteine pairing not given here; also: fused to phage pIII protein, pIII and linker sequence not given here, Clonal phage of the Peptide-9 library) [Phage-145] | 1.98 | 0.132 |  | 
MDWCPRHLWYACFN (tested as crude clonal phage supernatant) [Phage-144] |  |  | 2.01 | 0.159
MDFCPISLWHECFF (peptide, not shown: large carriers, Clonal phage of the Peptide-9 library) [Phage-151] | 1.58 | 0.129 |  | 
MDWCPRSLWNVCFF (tested as crude clonal phage supernatant) [Phage-141] |  |  | 2.13 | 0.356
